Tests used:
Test in all cases: Kinase Profiling Assay
Type in all cases: biochemical
Settings in all cases: 100 μM
Abl (Q252H) (h) = Abl (Q252H) (h) (Homo sapiens, UniProt P00519, Q252H)
CHK2(R145W)(h) = CHK2(R145W)(h) (Homo sapiens, UniProt O96017, R145W)
EGFR(h) = EGFR(h) (Homo sapiens, UniProt P00533)
MELK(h) = MELK(h) (Homo sapiens, UniProt Q14680)
Met(h) = Met(h) (Homo sapiens, UniProt P08581)
Met(D1246N)(h) = Met(D1246N)(h) (Homo sapiens, UniProt P08581, D1228N)
Mnk2(h) = Mnk2(h) (Homo sapiens, UniProt Q9HBH9)
Sequence of Mnk2(h) (Q9HBH9 whole entry): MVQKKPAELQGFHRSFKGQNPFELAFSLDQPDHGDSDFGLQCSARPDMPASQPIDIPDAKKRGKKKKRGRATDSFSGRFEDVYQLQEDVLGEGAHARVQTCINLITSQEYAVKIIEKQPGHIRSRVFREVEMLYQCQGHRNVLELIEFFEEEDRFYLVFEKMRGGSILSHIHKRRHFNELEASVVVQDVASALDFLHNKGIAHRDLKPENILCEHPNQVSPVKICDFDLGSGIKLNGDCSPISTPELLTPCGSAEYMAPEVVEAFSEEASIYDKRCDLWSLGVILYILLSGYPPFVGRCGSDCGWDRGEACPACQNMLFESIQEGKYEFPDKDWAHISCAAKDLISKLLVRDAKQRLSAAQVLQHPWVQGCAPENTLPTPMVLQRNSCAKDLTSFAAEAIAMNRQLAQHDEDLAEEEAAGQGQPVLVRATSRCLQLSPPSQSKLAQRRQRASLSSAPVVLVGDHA

MuSK(h) = target: T1, MuSK(h) (Homo sapiens, UniProt O15146)
T1 sequence (O15146 24-869): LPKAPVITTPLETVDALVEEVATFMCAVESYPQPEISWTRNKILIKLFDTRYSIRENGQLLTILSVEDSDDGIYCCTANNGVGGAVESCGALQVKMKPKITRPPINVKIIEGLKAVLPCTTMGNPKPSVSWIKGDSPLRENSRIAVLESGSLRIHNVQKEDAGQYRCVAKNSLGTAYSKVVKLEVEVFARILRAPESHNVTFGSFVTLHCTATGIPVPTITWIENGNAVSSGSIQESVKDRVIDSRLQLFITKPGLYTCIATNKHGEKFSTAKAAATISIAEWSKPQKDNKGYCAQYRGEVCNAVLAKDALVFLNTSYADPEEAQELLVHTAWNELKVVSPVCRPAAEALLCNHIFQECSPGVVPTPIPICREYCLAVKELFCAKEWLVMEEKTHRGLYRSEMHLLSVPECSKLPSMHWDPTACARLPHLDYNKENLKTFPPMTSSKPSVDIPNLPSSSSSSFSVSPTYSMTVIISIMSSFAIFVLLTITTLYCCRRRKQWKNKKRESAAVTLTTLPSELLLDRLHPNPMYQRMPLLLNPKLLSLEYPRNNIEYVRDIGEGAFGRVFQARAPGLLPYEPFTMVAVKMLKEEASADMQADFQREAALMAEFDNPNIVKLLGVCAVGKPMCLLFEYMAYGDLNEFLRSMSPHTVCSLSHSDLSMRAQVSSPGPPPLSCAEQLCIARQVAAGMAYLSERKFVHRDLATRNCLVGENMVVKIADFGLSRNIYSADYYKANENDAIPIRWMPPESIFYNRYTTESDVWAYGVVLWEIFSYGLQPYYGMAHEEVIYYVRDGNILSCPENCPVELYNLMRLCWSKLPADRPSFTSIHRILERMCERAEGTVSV

Pim-2(h) = Pim-2(h) (Homo sapiens, UniProt Q9P1W9)
Sequence of Pim-2(h) (Q9P1W9 whole entry): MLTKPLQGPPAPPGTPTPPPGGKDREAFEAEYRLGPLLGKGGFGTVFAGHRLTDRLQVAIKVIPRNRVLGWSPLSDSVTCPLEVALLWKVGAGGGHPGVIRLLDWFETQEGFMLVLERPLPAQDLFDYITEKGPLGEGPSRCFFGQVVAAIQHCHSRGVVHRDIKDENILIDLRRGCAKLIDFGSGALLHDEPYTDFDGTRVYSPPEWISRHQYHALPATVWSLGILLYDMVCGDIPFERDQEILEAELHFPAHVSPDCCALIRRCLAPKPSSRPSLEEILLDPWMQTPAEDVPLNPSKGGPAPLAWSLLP

TBK1(h) = target: T2, TBK1(h) (Homo sapiens, UniProt Q9UHD2)
T2 sequence (Q9UHD2 1-729): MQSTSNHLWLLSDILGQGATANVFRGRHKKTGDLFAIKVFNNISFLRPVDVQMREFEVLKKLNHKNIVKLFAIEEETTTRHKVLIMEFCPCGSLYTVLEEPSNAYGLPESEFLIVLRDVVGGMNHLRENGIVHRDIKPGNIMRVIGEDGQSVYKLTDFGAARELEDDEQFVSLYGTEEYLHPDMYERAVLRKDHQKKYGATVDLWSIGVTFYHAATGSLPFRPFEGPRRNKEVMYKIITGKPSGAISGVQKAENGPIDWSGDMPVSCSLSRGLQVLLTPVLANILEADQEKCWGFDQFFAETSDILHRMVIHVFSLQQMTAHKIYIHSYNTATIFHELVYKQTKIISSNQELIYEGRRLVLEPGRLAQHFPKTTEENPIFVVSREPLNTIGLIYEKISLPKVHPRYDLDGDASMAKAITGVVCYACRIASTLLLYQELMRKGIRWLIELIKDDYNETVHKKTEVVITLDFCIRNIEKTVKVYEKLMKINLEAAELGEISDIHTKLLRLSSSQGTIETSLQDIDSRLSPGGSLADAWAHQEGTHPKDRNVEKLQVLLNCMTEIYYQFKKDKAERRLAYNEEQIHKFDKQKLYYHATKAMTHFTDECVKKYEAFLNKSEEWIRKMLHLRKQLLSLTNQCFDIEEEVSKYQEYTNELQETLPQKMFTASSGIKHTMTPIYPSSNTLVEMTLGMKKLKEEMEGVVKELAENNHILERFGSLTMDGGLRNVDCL

TLK2(h) = TLK2(h) (Homo sapiens, UniProt Q86UE8)
Sequence of TLK2(h) (Q86UE8 whole entry): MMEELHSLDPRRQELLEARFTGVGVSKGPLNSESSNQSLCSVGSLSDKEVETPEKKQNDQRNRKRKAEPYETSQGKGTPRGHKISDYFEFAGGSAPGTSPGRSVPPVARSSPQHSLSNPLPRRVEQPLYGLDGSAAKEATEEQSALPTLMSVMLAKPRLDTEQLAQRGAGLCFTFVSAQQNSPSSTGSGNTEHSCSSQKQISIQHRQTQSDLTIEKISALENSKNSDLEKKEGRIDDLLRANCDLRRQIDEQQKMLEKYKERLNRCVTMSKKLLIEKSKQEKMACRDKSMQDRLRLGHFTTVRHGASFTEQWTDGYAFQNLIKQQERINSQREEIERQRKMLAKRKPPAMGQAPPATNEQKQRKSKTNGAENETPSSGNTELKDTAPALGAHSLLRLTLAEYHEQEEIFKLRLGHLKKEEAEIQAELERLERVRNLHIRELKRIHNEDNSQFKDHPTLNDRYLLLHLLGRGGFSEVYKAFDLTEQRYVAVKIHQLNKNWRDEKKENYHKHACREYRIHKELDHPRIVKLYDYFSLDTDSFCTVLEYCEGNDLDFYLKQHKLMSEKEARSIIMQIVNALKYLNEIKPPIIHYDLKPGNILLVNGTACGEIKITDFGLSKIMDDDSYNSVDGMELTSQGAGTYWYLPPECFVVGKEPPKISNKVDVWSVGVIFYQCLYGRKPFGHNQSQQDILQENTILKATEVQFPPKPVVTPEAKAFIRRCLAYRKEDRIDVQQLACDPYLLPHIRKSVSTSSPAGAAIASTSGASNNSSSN

Sequence of CHK2(R145W)(h) (O96017 whole entry R145W): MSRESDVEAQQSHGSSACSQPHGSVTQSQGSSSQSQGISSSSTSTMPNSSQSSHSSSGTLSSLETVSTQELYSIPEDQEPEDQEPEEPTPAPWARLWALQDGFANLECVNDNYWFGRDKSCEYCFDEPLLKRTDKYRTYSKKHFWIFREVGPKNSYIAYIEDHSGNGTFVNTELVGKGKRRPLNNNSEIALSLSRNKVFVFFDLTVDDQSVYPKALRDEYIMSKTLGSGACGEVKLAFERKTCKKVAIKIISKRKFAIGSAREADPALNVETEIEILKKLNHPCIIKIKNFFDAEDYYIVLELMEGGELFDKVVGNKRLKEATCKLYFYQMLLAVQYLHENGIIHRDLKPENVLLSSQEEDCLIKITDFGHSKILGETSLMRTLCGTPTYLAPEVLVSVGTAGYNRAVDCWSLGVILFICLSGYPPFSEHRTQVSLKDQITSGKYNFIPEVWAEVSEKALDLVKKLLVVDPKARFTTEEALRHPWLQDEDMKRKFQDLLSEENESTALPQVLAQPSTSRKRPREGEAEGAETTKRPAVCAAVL
Sequence of MELK(h) (Q14680 whole entry): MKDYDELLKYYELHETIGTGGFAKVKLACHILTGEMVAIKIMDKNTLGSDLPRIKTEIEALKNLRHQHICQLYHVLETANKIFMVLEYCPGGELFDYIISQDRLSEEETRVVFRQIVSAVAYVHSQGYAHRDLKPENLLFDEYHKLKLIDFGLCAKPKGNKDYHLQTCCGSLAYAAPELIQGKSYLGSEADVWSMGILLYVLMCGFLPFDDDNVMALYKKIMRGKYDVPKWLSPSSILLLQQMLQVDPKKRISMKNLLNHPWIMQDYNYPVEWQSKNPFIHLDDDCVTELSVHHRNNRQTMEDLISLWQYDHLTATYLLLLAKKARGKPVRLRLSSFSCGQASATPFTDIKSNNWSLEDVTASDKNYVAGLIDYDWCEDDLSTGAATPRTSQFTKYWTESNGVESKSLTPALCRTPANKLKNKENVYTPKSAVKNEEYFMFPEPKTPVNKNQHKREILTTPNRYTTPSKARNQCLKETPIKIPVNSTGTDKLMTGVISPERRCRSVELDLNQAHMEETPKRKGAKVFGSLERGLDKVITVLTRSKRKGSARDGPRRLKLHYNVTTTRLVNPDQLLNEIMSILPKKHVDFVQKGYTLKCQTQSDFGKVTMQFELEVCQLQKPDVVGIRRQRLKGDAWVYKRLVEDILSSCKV

Row | Sequence | % activity (Abl (Q252H) (h)) | % activity (CHK2(R145W)(h)) | % activity (EGFR(h)) | % activity (MELK(h)) | % activity (Met(h)) | % activity (Met(D1246N)(h)) | % activity (Mnk2(h)) | % activity (MuSK(h)) | % activity (Pim-2(h)) | % activity (TBK1(h)) | % activity (TLK2(h))
1 | FAKLAARLYRKALARQLGVAA [MMI-0300] | 82% | 33% | 21% | 16% | 65% | 82% | 89% | 93% | 76% | 37% | –
2 | HRRIKAWLKKIKALARQLGVAA [MMI-0500] | 40% | 3% | −1% | 0% | 27% | 90% | 6% | 27% | 46% | 16% | 133%
3 | KAFAKLAARLYRKALARQLGVAA [MMI-0400] | 98% | 31% | 16% | 17% | 62% | 31% | 86% | 93% | 92% | 39% | 151%
4 | YARAAARQARAKALNRQLGVA [MMI-0200] | – | 81% | 83% | 59% | 71% | 149% | – | – | 74% | 98% | 129%
